Source: patent US20240003906A1, “Biomarker of Fibrosis” (Nordic Bioscience A/S, priority 2020, published 2024)
Where no end group is shown, it is not given here.

T1: Rat dimeric peptide CKSGGFSPYYG x CKSGGFSPYYG (rat, also: homodimer cross-linked by disulphide N-terminal to antibody binding site, disulfide at 1, other end not in the chain)
T1 construct: also called dimeric rat peptide; rat selection peptide
T1 peptide: CKSGGFSPYYG

T2: Dimeric selection peptide CKAGGFAPYYG x CKAGGFAPYYG (human, also: homodimer linked by Cys1 disulphide, disulfide at 1, other end not in the chain)
T2 construct: Synthetic dimer of two identical strands; standard of the sandwich ELISA; also called dimeric human selection peptide
T2 peptide: CKAGGFAPYYG

T3: Dimeric elongated peptide CKAGGFAPYYGD x CKAGGFAPYYGD (also: homodimer linked by Cys1 disulphide, disulfide at 1, other end not in the chain)
T3 peptide: CKAGGFAPYYGD

T4: Dimeric truncated peptide CKAGGFAPYY x CKAGGFAPYY (also: homodimer linked by Cys1 disulphide, disulfide at 1, other end not in the chain)
T4 peptide: CKAGGFAPYY

T5: Selection peptide KAGGFAPYYG (human)
T5 construct: Synthetic monomeric peptide (Genscript); also called human selection peptide
T5 peptide: KAGGFAPYYG

T6: Elongated peptide KAGGFAPYYGD
T6 peptide: KAGGFAPYYGD

T7: Truncated peptide KAGGFAPYY
T7 peptide: KAGGFAPYY

B1: monoclonal antibody NBH-242 (antibody, mouse IgG2a, kappa, V domains shown)
VH: QVQLQQSGAELVRPGVSVKISCKGSGHTFTDHGMHWVKQSQAKSLEWIGVISTYYGDATYNQKFKGKATMTVDKSSSTAYMELARLTSEDSAIYYCARSMGGNYVGTGFAYWGQGTLVTVSA
VL: DIVMTQAAPSVPVTPGESVSISCRSSKSLLHSNGNTYLYWFLQRPGQSPQLLIYRMSNLASGVPDRFSGSGSGTAFTLRISRVEAEDVGVYYCMQHLEFPLTFGAGTKLELKR
notes: In the sandwich ELISA the antibody was biotinylated (capture) and HRP-labelled (detection); also called monoclonal NBH-242 antibody; capture antibody
B2: NBH-242: neo-epitope specific antibody directed towards the C-terminal neo-epitope in the C-terminal telopeptide of type III collagen (CT-III), …-COOH (antibody)
heavy: QVQLQQSGAELVRPGVSVKISCKGSGHTFTDHGMHWVKQSQAKSLEWIGVISTYYGDATYNQKFKGKATMTVDKSSSTAYMELARLTSEDSAIYYCARSMGGNYVGTGFAYWGQGTLVTVSAAKTTAPSVYPLAPVCGDTTGSSVTLGCLVKGYFPEPVTLTWNSGSLSSGVHTFPAVLQSDLYTLSSSVTVTSSTWPSQSITCNVAHPASSTKVDKKIEPRGPTIKPCPPCKCPAPNLLGGPSVFIFPPKIKDVLMISLSPIVTCVVVDVSEDDPDVQISWFVNNVEVHTAQTQTHREDYNSTLRVVSALPIQHQDWMSGKEFKCKVNNKDLPAPIERTISKPKGSVRAPQVYVLPPPEEEMTKKQVTLTCMVTDFMPEDIYVEWTNNGKTELNYKNTEPVLDSDGSYFMYSKLRVEKKNWVERNSYSCSVVHEGLHNHHTTKSFSRTPGK
light: DIVMTQAAPSVPVTPGESVSISCRSSKSLLHSNGNTYLYWFLQRPGQSPQLLIYRMSNLASGVPDRFSGSGSGTAFTLRISRVEAEDVGVYYCMQHLEFPLTFGAGTKLELKRADAAPTVSIFPPSSEQLTSGGASVVCFLNNFYPKDINVKWKIDGSERQNGVLNSWTDQDSKDSTYSMSSTLTLTKDEYERHNSYTCEATHKTSTSPIVKSFNRNE

Key:
[1] = biological target: T1, Rat dimeric peptide CKSGGFSPYYG x …; assay: direct sandwich ELISA, NBH-242 as capture and detection antibody
Experimental: (§1) Unbound primary antibody and sample was discarded, and the wells were washed with washing buffer. Subsequently, 100 μL chemiluminescence substrate was added to the wells, plates were incubated for 3 minutes at 20° C. in the dark rotating 300 rpm. Finally, the luminescence emitted was quantified with an ELISA reader (VersaMAX; Molecular Devices, Wokingham Berkshire, UK) set to measure the luminescence at 450 nm and 650 nm. […] Unknown sample measurements were interpolated with the standard curve to obtain the concentration (ng/mL) of the CTX-III fragment.
(§2) By plotting the calculated percentage recovery, the specificity of the antibodies in the direct sandwich ELISA towards the dimeric peptides was tested.

[2] = biological target: T2, Dimeric selection peptide CKAGGFAPYYG x …; assay: as above
Experimental: as §1, §2

[3] = biological target: T3, Dimeric elongated peptide CKAGGFAPYYGD …; assay: as above
Experimental: as §1, §2

[4] = biological target: T4, Dimeric truncated peptide CKAGGFAPYY x …; assay: as above
Experimental: as §1, §2

[5] = biological target: T5, Selection peptide KAGGFAPYYG; assay: indirect competitive ELISA, selection peptide competing with coated biotin-KAGGFAPYYG
[6] = biological target: T6, Elongated peptide KAGGFAPYYGD; assay: indirect competitive ELISA (final inhibition)
[7] = biological target: T7, Truncated peptide KAGGFAPYY; assay: indirect competitive ELISA (final inhibition)
[8] = biological target: T8, dimeric elongated peptide (CKAGGFAPYYGD×CKAGGFAPYYGD (SEQ ID NO: 17)) (Homo sapiens, UniProt P02461); assay: Direct sandwich ELISA specificity towards dimeric peptides; assay type: binding; settings: NBH-242 as capture and detection antibody, FIG. 3
T8 construct: purchased Genscript, Piscataway, NJ, USA; host or cells: synthetic peptide
Experimental: (§3) 96-well plates precoated with streptavidin (Roche Diagnostic's, Hvidovre, Denmark, cat. No. 11940279) were coated with 100 μL of the biotinylated antibody targeting the CTX-III fragment diluted 1+100 in assay buffer (50 mM PBS, 1% BSA, 1% Tween-20, 150 mM NaCl, pH 7.4) for 30 minutes at room temperature rotating at 300 rounds-per-minute (rpm). Unbound biotinylated capture antibody was discarded, and the wells were washed with washing buffer (25 mM TRIZMA, 50 mM NaCl, 0.036% Bronidox L5, 0.1% Tween 20) using a standardized ELISA plate washing machine (BioTek® Instruments, Microplate washer, ELx405 Select CW, Winooski, USA). All samples and the detection antibody were diluted in incubation buffer (50 mM PBS, 1% BSA, 1% Tween-20, 150 mM NaCl, 5% Liquid II, pH 7.4), with the detection antibody being diluted 1+100. 20 μL of sample material and controls were incubated with 100 μL HRP labelled detection antibody targeting the CTX-III fragment, at 4° C. for 20 hours and agitated at 300 rpm. […] Finally, the luminescence emitted was quantified with an ELISA reader (VersaMAX; Molecular Devices, Wokingham Berkshire, UK) set to measure the luminescence at 450 nm and 650 nm. […]
(§4) The lower limit of detection (LLOD) was determined from 21 zero samples (i.e. incubation buffer) and calculated as the mean+3× standard deviation, whereas the upper limit of detection (ULOD) was determined from 10 measurements of the dimeric selection peptide calculated as the mean+3× standard deviation. The inter- and intra-assay variation was determined by 10 independent runs of five quality control (QC) samples with minimum three of these being healthy human plasma EDTA samples (Valley Biomedical, Winchester, VA, USA), with each run consisting of double determinations of the samples. […] Assay linearity was determined by calculating the percentage recovery (100%±20%) of a 1:6-fold dilution of healthy human plasma EDTA samples with a significant concentration, using the undiluted sample as reference. […] Subsequently, the percentage recovery between the control sample and the low or high interferent samples were calculated.

[9] = biological target: T9, Rat dimeric peptide (CKSGGFSPYYG×CKSGGFSPYYG) (Rattus norvegicus, UniProt P13941); assay: as above; assay type: binding; settings: NBH-242 as capture and detection antibody, FIG. 3
T9 construct: purchased Genscript, Piscataway, NJ, USA; host or cells: synthetic peptide
Experimental: as §3, §4

[10] = biological target: T10, dimeric truncated peptide (CKAGGFAPYY×CKAGGFAPYY (SEQ ID NO: 18)) (Homo sapiens, UniProt P02461); assay: as above; assay type: binding; settings: NBH-242 as capture and detection antibody, FIG. 3
T10 construct: purchased Genscript, Piscataway, NJ, USA; host or cells: synthetic peptide
Experimental: as §3, §4

Row | Molecule | binding result [1] | binding result [2] | binding result [3] | binding result [4] | binding result [5] | binding result [6] | binding result [7] | reactivity towards the dimeric elongated peptide [8] | reactivity towards the dimeric rat peptide [9] | reactivity towards the dimeric truncated peptide [10]
1 | B1 | no binding | binds | no binding | no binding | binds | no binding | no binding |  |  | 
2 | B2 |  |  |  |  |  |  |  | no reactivity | no reactivity | no reactivity
